Our source for the Kd values is the Immune Epitope Database (IEDB).

For one experiment, the target named is HLA-B*40:01. Kind of experiment: IEDB peptide-MHC binding, purified MHC/direct/fluorescence; filed as Kd, often an IC50 or EC50 that approximates it; ≥ and ≤ were set here for values at or beyond the usual limits of such assays. Conditions: source organism: Giardia lamblia ATCC 50803.
The target in another experiment is HLA-B*73:01. Described as above. Conditions: source organism: Giardia lamblia ATCC 50803.
The target of a further experiment is HLA-A*03:01. The description is as above. As to conditions: source organism: Giardia lamblia ATCC 50803.
In experiment [1] the target is HLA-A*11:01. Described as above. As to conditions: source organism: Giardia lamblia ATCC 50803.
The next experiment addresses HLA-A*01:01. The experiment is described as above.
For the next experiment, the target named is HLA-A*31:01. The description is as above.
In the next experiment the target is HLA-A*30:01. The description is as above. As to conditions: source organism: Giardia lamblia ATCC 50803.
For the next experiment, the target named is HLA-A*69:01. The experiment is described as above.
The target of the next experiment is HLA-B*08:01. Described as above.
Another experiment concerns the target HLA-B*27:05. The description is as above. As to conditions: source organism: Giardia lamblia ATCC 50803.
The target in the next experiment is HLA-B*44:02. Described as above. As to conditions: source organism: Giardia lamblia ATCC 50803.
A further experiment has as its target HLA-B*58:01. The description is as above.
The target in experiment [2] is HLA-A*02:01. Described as above. Conditions: source organism: Giardia lamblia ATCC 50803.
Experiment [3] deals with HLA-B*15:01. The experiment is described as above. As to conditions: source organism: Giardia lamblia ATCC 50803.
In the next experiment the target is HLA-A*26:01. The experiment is described as above.
The target in a further experiment is HLA-B*07:02. The experiment is described as above.
The next experiment addresses HLA-C*04:01. Described as above. Conditions: source organism: Nostoc punctiforme PCC 73102.
Another experiment concerns the target HLA-A*24:03. The experiment is described as above.
The target of another experiment is HLA-B*08:03. Described as above. Conditions: source organism: Brucella suis 1330.
In another experiment the target is HLA-C*15:02. The description is as above. Conditions: source organism: Brucella abortus S19.
Another experiment addresses HLA-B*15:09. Described as above. Conditions: source organism: Brucella suis 1330.
Another experiment has as its target HLA-B*39:01. The description is as above. Conditions: source organism: Brucella suis 1330.
A further experiment concerns the target HLA-C*14:02. The experiment is described as above. As to conditions: source organism: Brucella abortus S19.
Experiment [4] deals with HLA-C*06:02. The experiment is described as above. Conditions: source organism: Brucella abortus S19.
For another experiment, the target named is HLA-B*57:01. The description is as above. As to conditions: source organism: Brucella abortus 2308.
Another experiment addresses HLA-A*23:01. Described as above. As to conditions: source organism: Brucella abortus 2308.
A further experiment addresses HLA-A*02:03. Kind of experiment: IEDB peptide-MHC binding, purified MHC/competitive/fluorescence; filed as Kd, often an IC50 or EC50 that approximates it; ≥ and ≤ were set here for values at or beyond the usual limits of such assays. As to conditions: source organism: Brucella abortus S19.
In experiment [5] the target is HLA-A*11:01. Described as above. Conditions: source organism: Brucella abortus S19.
A further experiment deals with HLA-B*18:01. The experiment is described as above. Conditions: source organism: Brucella abortus S19.
For a further experiment, the target named is HLA-A*02:06. The experiment is described as above. Conditions: source organism: Brucella abortus S19.
The target of the next experiment is HLA-A*68:02. The experiment is described as above. Conditions: source organism: Brucella abortus S19.
The target of experiment [6] is HLA-A*02:01. Described as above. As to conditions: source organism: Brucella abortus S19.
For another experiment, the target named is HLA-A*26:02. The experiment is described as above. Conditions: source organism: Brucella abortus S19.
The next experiment concerns the target HLA-B*15:17. The experiment is described as above. Conditions: source organism: Brucella abortus S19.
Experiment [7] deals with HLA-B*15:01. Described as above. As to conditions: source organism: Brucella abortus S19.
The target of a further experiment is HLA-C*07:02. Kind of experiment: IEDB peptide-MHC binding, purified MHC/direct/fluorescence; filed as Kd, often an IC50 or EC50 that approximates it; ≥ and ≤ were set here for values at or beyond the usual limits of such assays. As to conditions: source organism: Homo sapiens.
The next experiment deals with HLA-C*05:01. The experiment is described as above. As to conditions: source organism: Homo sapiens.
For a further experiment, the target named is HLA-B*51:01. The description is as above. As to conditions: source organism: Homo sapiens.
A further experiment concerns the target HLA-A*32:07. Kind of experiment: IEDB peptide-MHC binding, purified MHC/competitive/fluorescence; filed as Kd, often an IC50 or EC50 that approximates it; ≥ and ≤ were set here for values at or beyond the usual limits of such assays. Conditions: source organism: Homo sapiens.
Another experiment addresses HLA-B*83:01. Described as above. As to conditions: source organism: Homo sapiens.
For experiment [8], the target named is HLA-C*06:02. The experiment is described as above. Conditions: source organism: Homo sapiens.
A further experiment has as its target HLA-A*68:23. The description is as above. Conditions: source organism: Homo sapiens.
For a further experiment, the target named is HLA-A*32:15. Described as above. Conditions: source organism: Homo sapiens.
The next experiment addresses HLA-B*15:42. The description is as above. Conditions: source organism: Homo sapiens.
The target of another experiment is HLA-B*45:06. The description is as above. As to conditions: source organism: Homo sapiens.
A further experiment concerns the target HLA-B*40:13. Described as above. Conditions: source organism: Homo sapiens.
The mark [9] stands for this setting: source organism: Giardia lamblia ATCC 50803.
The mark [10] stands for this setting: source organism: Brucella abortus 2308.
Where [11] appears, read: source organism: Brucella suis 1330.

For orientation: Kd means a measure of binding affinity in units of concentration. Lower therefore signals a tighter complex.

Turning to IRNLVKRYK, the Kd was at least 20 µM in the experiment with HLA-B*40:01; 3.5 µM in the experiment with HLA-B*73:01; at least 20 µM in the experiment with HLA-A*03:01; at least 20 µM with HLA-A*11:01 [1]; at least 20 µM in the experiment with HLA-A*01:01 (setting [9]); at least 20 µM in the experiment with HLA-A*31:01 (setting [9]). Also, the dissociation constant (Kd) is 0.0508 µM in the experiment with HLA-A*30:01; at least 20 µM in the experiment with HLA-A*69:01 (setting [9]); at least 20 µM with HLA-B*08:01 (setting [9]); 1.21 µM with HLA-B*27:05; at least 20 µM in the experiment with HLA-B*44:02; at least 20 µM with HLA-B*58:01 (setting [9]). Moreover, the Kd with HLA-A*02:01 [2], in the experiment with HLA-B*15:01 [3], with HLA-A*26:01 (setting [9]) and in the experiment with HLA-B*07:02 (setting [9]) was at least 20 µM each time.

With YWPTEGYEF, the dissociation constant Kd is 0.222 µM with HLA-C*04:01 and at most 0.001 µM in the experiment with HLA-A*24:03 (source organism: Escherichia coli O157:H7).

Take YWMGGTTYF: the Kd with HLA-B*08:03, in the experiment with HLA-C*15:02, with HLA-B*15:09, with HLA-A*01:01 (setting [10]), in the experiment with HLA-A*31:01 (setting [10]) and with HLA-B*39:01 was at least 20 µM throughout. Also, the Kd was at most 0.001 µM with HLA-C*14:02; at least 20 µM in the experiment with HLA-A*69:01 (setting [10]); at least 20 µM in the experiment with HLA-B*08:01 (setting [11]); at most 0.001 µM with HLA-A*24:03 (setting [10]); at least 20 µM in the experiment with HLA-C*06:02 [4]; at least 20 µM in the experiment with HLA-B*57:01. Moreover, the Kd is 0.0535 µM in the experiment with HLA-A*23:01; at least 20 µM with HLA-B*58:01 (setting [10]); at least 20 µM with HLA-A*26:01 (setting [11]); at least 20 µM with HLA-B*07:02 (setting [10]); 4.23 µM with HLA-A*02:03; 2.07 µM with HLA-A*11:01 [5]. Besides, the dissociation constant Kd was at least 20 µM with HLA-B*18:01; 0.797 µM in the experiment with HLA-A*02:06; at least 20 µM with HLA-A*68:02; 1.12 µM with HLA-A*02:01 [6]; at least 20 µM in the experiment with HLA-A*26:02; 1.02 µM in the experiment with HLA-B*15:17. Further, the Kd with HLA-B*15:01 [7] worked out at 1.04 µM.

With MAMGILHTI, the dissociation constant (Kd) is 3.31 µM with HLA-C*07:02; at least 20 µM in the experiment with HLA-C*05:01; 0.168 µM with HLA-B*51:01; 0.0047 µM in the experiment with HLA-A*32:07; 3.6 µM with HLA-B*83:01; 1.78 µM in the experiment with HLA-C*06:02 [8]. Besides, the Kd with HLA-A*68:23 was 0.0065 µM; in the experiment with HLA-A*32:15, 0.0202 µM; with HLA-B*15:42, at least 5 µM; with HLA-B*45:06, at least 5 µM; with HLA-B*40:13 it was 0.213 µM.
